Measured values published in paper PMC12609908.

Target: T1, CutR (Mycobacterium sp. strain JC1, UniProt D5G1X9 1-320)
T1 sequence: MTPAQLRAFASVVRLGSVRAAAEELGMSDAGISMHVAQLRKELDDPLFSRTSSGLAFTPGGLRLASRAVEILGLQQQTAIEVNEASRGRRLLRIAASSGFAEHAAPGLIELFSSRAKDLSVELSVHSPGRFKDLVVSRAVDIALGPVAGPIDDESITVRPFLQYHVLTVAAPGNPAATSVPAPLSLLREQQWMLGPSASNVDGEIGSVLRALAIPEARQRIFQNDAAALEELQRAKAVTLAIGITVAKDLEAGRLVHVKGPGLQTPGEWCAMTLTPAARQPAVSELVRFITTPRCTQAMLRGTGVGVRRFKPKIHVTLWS
Experiment: EMSA; no CO; 50 mM Tris-HCl pH 8.0, 100 mM NaCl, 40% glycerol, 5 mM DTT, 2 mM EDTA, 4 °C 1 h; 10% native PAGE in 0.5x TBE at 4 °C
Settings: protein: recombinant; tags: C-terminal His6; chain copies: 2; label: 5'-biotin (forward strand); blunt

B1: IR2 (29 bp) (dsDNA)
DNA 1: GGGCCAGTTAAGCGATTCCTTAAGGGGGG
DNA 2: CCCCCCTTAAGGAATCGCTTAACTGGCCC
B1: binds.
